{"source": "paper PMC2581425", "key": {"[1]": {"biological_target": "CagY-C2 (recombinant N-terminal His-tagged CagY repeat 2 motif A fragment) (Helicobacter pylori strain Q121B)", "test": "SEC; 26/60 Superdex 200, 20 mM Tris (pH 8.0), 200 mM NaCl, 2 mL/min; calibrated with known standards; peaks analysed by SDS-PAGE (not shown)"}, "[2]": {"biological_target": "CagY-C2 (recombinant N-terminal His-tagged CagY repeat 2 motif A fragment) (Helicobacter pylori strain Q121B)", "test": "non-reducing SDS-PAGE; affinity-purified His-tagged protein on 15% SDS-PAGE without reducing agent, beside a reducing gel; multimers held by disulphide linkages"}, "[3]": {"biological_target": "CagY-C2_(C3S/C28S/C41S) (Helicobacter pylori strain Q121B)", "test": "non-reducing SDS-PAGE; affinity-purified His-tagged protein on 15% SDS-PAGE without reducing agent, beside a reducing gel; multimers held by disulphide linkages"}}, "note": "Several values for one entry are separate records, joined by “and”; a condition that tells them apart may be missing. Equal entries are not always repeated."}
{"substance": "CagY-C2 (recombinant N-terminal His-tagged CagY repeat 2 motif A fragment) (domain or fragment)", "values": [{"measurement": "stoichiometry N", "setting": "[1]", "result": 2}, {"measurement": "stoichiometry N", "setting": "[2]", "result": "2 and 3 and 4"}]}
{"substance": "CagY-C2_(C3S/C28S/C41S) (domain or fragment)", "values": [{"measurement": "stoichiometry N", "setting": "[3]", "result": 2}]}
